Results published in PMC10706726.

Biological target: cLUC-LcMYB111 (litchi)

Substance LcHY5-nLUC (natural protein) has a dual-luciferase reporter (LUC/REN): activation of proLcFLS-A when LcMYB111 was co-infiltrated with LcHY5 (untagged effectors) of 18.8 fold and a dual-luciferase reporter (LUC/REN): activation of proLcFLS-B when LcMYB111 was co-infiltrated with LcHY5 (untagged effectors) of 5.78 fold.
